In the supplement of paper PMC11780869:

Test system: Bacillus subtilis
Test: cleaved RNA product abundance (RNA/gDNA barcode ratio) relative to median wild-type variant (ratio to wild type); higher = more accumulation of the downstream cleavage product
How it was run: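 Cleaved product abundance for each construct is its RNA-to-gDNA barcode ratio, scaled to the median construct carrying the unmutated site. Cleaved RNA was isolated on a gel, reverse transcribed and barcode-sequenced, with genomic DNA barcodes sequenced alongside and UMIs collapsed. The reporters were truncated aprE or tetM mRNAs with barcoded, mutagenized RNase Y cleavage-site windows integrated into the B. subtilis chromosome, and cultures grew in LB at 37°C from OD600 0.0003 to 0.3.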

[1] = experiment (reporter, strain, medium): exp 8a: truncated aprE reporter, strain BJT201 with 2% xylose (RNase J1 expressed), cleavage site: glnRA (positions -5 to +31 mutated)
[2] = experiment (reporter, strain, medium): exp 2b: truncated aprE reporter, strain BJT200, cleavage site: cggR-gapA (positions -7 to +36 mutated)
[3] = experiment (reporter, strain, medium): exp 4a: truncated aprE reporter, strain BJT201 with 2% xylose (RNase J1 expressed), cleavage site: cggR-gapA (positions -7 to +36 mutated)
[4] = experiment (reporter, strain, medium): exp 6: tetM reporter, strain 168, cleavage site: cggR-gapA (positions -7 to +36 mutated)

Sequence | cleaved RNA product abundance [2] | cleaved RNA product abundance [3] | further results
CGACATGTCCCGCTTCTTTCATTAATCCGTTAGCAATTGTTTTGCTATATACCTTTACCTTTTAAGAGGAGGAAT |  |  | cleaved RNA product abundance [1]: 0.3
ACAGACGAAGGAGCCGCAAAGAAGTTATTAAGGGATAAATATTCCCTCAATATAAATATCTCTCACTTATTTAAA | 0.755 | 1.01 | 
ACAGACGAAGGAGCCGCATAGAAGTTATTCAGGGATGAATAATCCCTCAATATAAATATCTCTCACTTATTTAAA |  | 0.947 | 
ACAGACGAAGGAGCCGCAAAGAAGTTATTAAGGGATTAATAATCACTCAATATAAATATCTCTCACTTATTTAAA |  | 0.129 | 
ACAGACGAAGGAGCCGCAAAGAAGTTATTCAGGGATGAATAATCCCTAAATATAAATATCTCTCACTTATTTAAA | 0.695 | 0.713 | 
CGACATGTCCCGCTTCTTTCATTAATCCGTTAGCAACTGTCTTGCTATATACATTTACCTTTTAAGAGGAGGAAT |  |  | cleaved RNA product abundance [1]: 0.849
CGACATGTCCCGCTTCTTTCATTAATCCGTTAGCAACTCTTTTGCTATATACATTTACCTTTTAAGAGGAGGAAT |  |  | cleaved RNA product abundance [1]: 1.15
ACAGACGAAGGAGCCGCAATGAAGTTATTAAGGGTTGAATAATCCCTCAATATAAATATCTCTCACTTATTTAAA | 0.325 |  | 
ACAGACGAAGGAGCCGCAAATAAGTTATTAAGGGATGAATAATCCCTCAATACAAATATCTCTCACTTATTTAAA |  | 0.106 | 
ACAGACGAAGGAGCCGCAACAAAGTTATTAAGGGATGAATAATCCCTCAATATAAATATCTCTCACTTATTTAAA |  | 0.8 | 
ACAGACGAAGGAGCCGCAAAGAAGTTATTAAGGGATGAATAATCCCTCGTTATAAATATCTCTCACTTATTTAAA | 0.097 | 0.157 | 
ACAGACGAAGGAGCCGCAAAGAAGTTATTAAGGGATGAATAATACCACAATATAAATATCTCTCACTTATTTAAA | 0.0894 | 0.0911 | 
ACAGACGAAGGAGCCGCAAAGCAGTTATTAAGGGATGAATAATCCATCAATATAAATATCTCTCACTTATTTAAA |  | 0.172 | 
ACAGACGAAGGAGCCGCAAAGACTTTATTAAGGGATGAATAATCCCTCAATATAAATATCTCTCACTTATTTAAA |  | 0.8 | 
ACAGACGAAGGAGCCGCAAAGAAGTTATTACGGGATGAATAATGCCTCAATATAAATATCTCTCACTTATTTAAA |  | 0.128 | 
ACAGACGAAGGAGCCGCAAAGAAGTTATTAAGGGATGTATAATCCCTCAATTTAAATATCTCTCACTTATTTAAA | 0.218 | 0.146 | 
ACAGACGAAGGAGCCGCAAAGAAGTTATTAAGGGATGAATAATACCTCATTATAAATATCTCTCACTTATTTAAA |  | 0.117 | 
ACAGACGAAGGAGCCGCAAACAAGTTATTAAGGGACGAATAATCCCTCAATATAAATATCTCTCACTTATTTAAA |  | 0.279 | 
ACAGACGAAGGAGCCGCAAAGAAGTTATTAAGGGATGAATAATCCCTCAATCTAAATATCTCTCACTTATTTAAA | 0.126 | 0.138 | cleaved RNA product abundance [4]: 0.193
CGACATGTCCCGCTTCTTTCATTAATCCGTTACCAACTGTTTTGCTATACACATTTACCTTTTAAGAGGAGGAAT |  |  | cleaved RNA product abundance [1]: 0.212

Sequence | cleaved RNA product abundance [2] | cleaved RNA product abundance [3] | further results
ACAGACGAAGGAGCCGCAAATAAGCTATTAAGGGATGAATAATCCCTCAATATAAATATCTCTCACTTATTTAAA |  | 0.149 | 
CGACATGTCCCGCTTCTTTCATTACTCCGTTAGCAACTGTATTGCTATATACATTTACCTTTTAAGAGGAGGAAT |  |  | cleaved RNA product abundance [1]: 0.89
CGACATGTCCCGCTTCTTTCATTAATCCGTTAGCAACTGTTTTGCTATATACATTAGCCTTTTAAGAGGAGGAAT |  |  | cleaved RNA product abundance [1]: 0.519
ACAGACGAAGGAGCCGCAAAGAAGTGATTTAGGGATGAATAATCCCTCAATATAAATATCTCTCACTTATTTAAA |  | 0.386 | 
ACAGACGAAGGAGCCGCAATGAAGTTACTAAGGGATGAATAATCCCTCAATATAAATATCTCTCACTTATTTAAA |  | 0.249 | 
ACAGACGAAGGAGCCGCAAAGATGTTATTAAGGGATGAATAATCCGTCAATATAAATATCTCTCACTTATTTAAA | 0.113 | 0.2 | 
ACAGACGAAGGAGCCGCAAAGAAGTTATTTAGGGATGAATAATCCCTCAATTTAAATATCTCTCACTTATTTAAA |  | 0.119 | 
ACAGACGAAGGAGCCGCAAAGAAGATTTTAAGGCATGAATAATCCCTCAATATAAATATCTCTCACTTATTTAAA |  | 0.143 | 
ACAGACGAAGGAGCCGCAAAGAAGTTATTAAGGGATGGATAATCCATCAATATAAATATCTCTCACTTATTTAAA |  | 0.189 | 
ACAGACGAAGGAGCCGCAAAGAAGTTATTAAGGGATAATTAATCCCTCAATATAAATATCTCTCACTTATTTAAA | 1.13 | 0.759 | 
ACAGACGAAGGAGCCGCAAAAAAGTTATTAAGGGATGAATAATCCCTCAATATAAATCTCTCTCACTTATTTAAA |  | 0.362 | 
ACAGACGAAGGAGCCGCAAAGAAGTTATTAATGGATGAATCATCCCTCAATATAAATATCTCTCACTTATTTAAA | 0.122 | 0.189 | 
ACAGACGAAGGAGCCGCAAAGAAGTTATTAAGGGATAAATAATCCCTCAATAAAAATATCTCTCACTTATTTAAA |  |  | cleaved RNA product abundance [4]: 0.148
ACAGACGAAGGAGCCGCAAAGAAGTTATTAAGGCATGAATAATCCTTCAATATAAATATCTCTCACTTATTTAAA | 0.115 | 0.13 | 
ACAGACGAAGGAGCCGCAAAGAAGTTATTAAGGGATGAGAAATCCCTCAATATAAATATCTCTCACTTATTTAAA |  | 0.604 | 
ACAGACGAAGGAGCCGCAAATAAGTTATTAAGGGATGAATAATCCATCAATATAAATATCTCTCACTTATTTAAA | 0.172 | 0.261 | 
ACAGACGAAGGAGCCGCAAAGAAGTTATGAAGGGATGAATAATCCCTCAATATACATATCTCTCACTTATTTAAA |  | 0.344 | 
ACAGACGAAGGAGCCGCAAAGTAGTTATTAAGGGATGAATAATCCCTCAATGTAAATATCTCTCACTTATTTAAA |  | 0.13 | 
ACAGACGAAGGAGCCGCAAAGAAGTTATTTAGGGATGAATAATCCCTCAAGATAAATATCTCTCACTTATTTAAA | 0.16 |  | 
ACAGACGAAGGAGCCGCAAATAAGTTATTAAGGGATGAATAATCCCTCAATATAAATGTCTCTCACTTATTTAAA |  | 0.45 | 

Sequence | cleaved RNA product abundance [2] | cleaved RNA product abundance [3] | further results
ACAGACGAAGGAGCCGCAAAGAAGTTATTAAGGGAAGAATAATCCCTCAATATAAAGATCTCTCACTTATTTAAA |  | 0.495 | 
ACAGACGAAGGAGCCGCAAAGAAATTATTAAGGGATGAATAATCCCTCAATATAAATATATCTCACTTATTTAAA |  | 1.19 | 
ACAGACGAAGGAGCCGCAACGAAGTTATTATGGGATGAATAATCCCTCAATATAAATATCTCTCACTTATTTAAA |  | 0.483 | 
CGACATGTCCCGCTTCTTTCATTAATCCTTTAGCCACTGTTTTGCTATATACATTTACCTTTTAAGAGGAGGAAT |  |  | cleaved RNA product abundance [1]: 0.253
CGACATGTCCCGCTTCTTTCATTAATCCGTTATCAACTGTTTTGCTATATACAGTTACCTTTTAAGAGGAGGAAT |  |  | cleaved RNA product abundance [1]: 0.286
ACAGACGAAGGAGCCGCAAAGAAGTTATTAAGGCATGAATAATCCCACAATATAAATATCTCTCACTTATTTAAA | 0.0968 | 0.0597 | 
ACAGACGAAGGAGCCGCAAAGAAATTATTAAGGGATGAATAATCCCTCAATATAACTATCTCTCACTTATTTAAA |  | 0.325 | 
CGACATGTCCCGCTTCTTTCATTATTCCGTTAGCAACTGTTTTGCTATATACATTTAACTTTTAAGAGGAGGAAT |  |  | cleaved RNA product abundance [1]: 1.71
ACAGACGAAGGAGCCGCTAAGAATTTATTAAGGGATGAATAATCCCTCAATATAAATATCTCTCACTTATTTAAA |  | 0.468 | 
ACAGACGAAGGAGCCGCAAAGAAGTTATTAAGGGATGAATAATCCTTCAAAATAAATATCTCTCACTTATTTAAA | 0.259 | 0.253 | 
ACAGACGAAGGAGCCGCAAAGAAGTTATTAAGGCATGAATAATCCCTCAATATAAATTTCTCTCACTTATTTAAA | 0.0999 | 0.0847 | 
CGACATGTCCCGCTTCTTTCATTAATCCGTTAGAAACTGTTTTACTATATACATTTACCTTTTAAGAGGAGGAAT |  |  | cleaved RNA product abundance [1]: 0.422
ACAGACGAAGGAGCCGCAAAGAAATTATTAAGGGATGAATAATCCATCAATATAAATATCTCTCACTTATTTAAA | 0.163 | 0.201 | 
CGACATGTCCCGCTTCTTTCATTAATCCGTTAGAAACTGTTTTGATATATACATTTACCTTTTAAGAGGAGGAAT |  |  | cleaved RNA product abundance [1]: 0.221
CGACATGTCCCGCTTCTTTCATTAATCCGTTAGCAACTGTTTGGCTATAAACATTTACCTTTTAAGAGGAGGAAT |  |  | cleaved RNA product abundance [1]: 0.327
ACAGACGAAGGAGCCGCAAAGAAGTTATTAAGGGATGAATAATCCCTCCCTATAAATATCTCTCACTTATTTAAA |  | 0.212 | 
ACAGACGAAGGAGCCGCAAAGATGTTATTAAGGGATGAATAATCCCTCGATATAAATATCTCTCACTTATTTAAA | 0.352 |  | 
ACAGACGAAGGAGCCGCAAAGAAGATATAAAGGGATGAATAATCCCTCAATATAAATATCTCTCACTTATTTAAA | 0.272 | 0.514 | 
ACAGACGAAGGAGCCGCAAAGAAGTTATTAAGTGATGAATAATCCCTCAATTTAAATATCTCTCACTTATTTAAA | 0.0957 | 0.0598 | 
CGACATGTCCCGCTTCTTTCATTAATCCGTTAGAAACTGTTTTGCTATATACACTTACCTTTTAAGAGGAGGAAT |  |  | cleaved RNA product abundance [1]: 0.157
